Reference: US20240400715A1 (VIBRANT PHARMA, published 2024)
Where “and” joins values, the source holds several entries; their conditions need not be identical. Equal entries are not always repeated.

Tests used:
[1] = molecular target: T1, human CD3ε/δ (ACRO systems, CDD-H52W1) (human, UniProt P07766 23-126; P04234 22-105); assay: BLI, antibody captured, antigen in solution;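 note: bispecific antibodies captured on AHIC biosensors to a 1.5 nm loading signal, in PBST with 0.02% detergent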
T1 construct: Bought protein; also called human CD3ϵ/CD3δ; human CD3 epsilon/delta antigen
Protocol: The bispecific antibodies were diluted to 5 ag/ml, and 1.5 nm protein was coupled to the surface of the AHIC sensor chip through 0.02% PBST.

[2] = molecular target: T2, human CD3 on Jurkat cells (human, UniProt P07766 23-207; P04234 22-171; P09693 23-182); assay: FACS, Jurkat cells;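 note: flow cytometric binding of bispecific antibodies to Jurkat T cells, threefold serial dilutions incubated half an hour in the cold, EC50 taken from the fitted binding curve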
T2 construct: whole, on cells; CD3 complex as on Jurkat (Clone E6-1) cells; also called CD3 expressing cells (Jurkat)

Binder	Kd [1] [nM]	koff [1] [s⁻¹]	kon [1] [M⁻¹ s⁻¹]	EC50 [2]
306 (TA7), configuration of FIG. 1W (bispecific antibody, IgG4, chains put together from VH/VL, CH1, knob-Fc; IgG4, kappa; also called CEA-CD3 bispecific antibody 306; not shown: kappa light chain constant domain (CL)) heavy: EVQLVQSGAEVKKPGASVKVSCKASGFTFTSYYIHWVRQAPGQGLEWIGWIYPENDNTKYNEKFKDRVTITADTSTSTAYLELSSLRSEDTAVYYCARDGYSRYYFDYWGQGTLVTVSSASTKGPSVFPLAPCSRSTSESTAALGCLVKDYFPEPVTVSWNSGALTSGVHTFPAVLQSSGLYSLSSVVTVPSSSLGTKTYTCNVDHKPSNTKVDKRVESKYGPPCPPCPAPEAAGGPSVFLFPPKPKDTLMISRTPEVTCVVVDVSQEDPEVQFNWYVDGVEVHNAKTKPREEQFNSTYRVVSVLTVLHQDWLNGKEYKCKVSNKGLPSSIEKTISKAKGQPREPQVYTLPPCQEEMTKNQVSLWCLVKGFYPSDIAVEWESNGQPENNYKTTPPVLDSDGSFFLYSRLTVDKSRWQEGNVFSCSVMHEALHNHYTQKSLSLSL EVQLVESGGGFVQAGESLTLSCTSSTLTFTPYRMAWYRQAPGKQRDLVADISSGDGRTTNYADFAKGRFTISRDNIKNTVFLRMTNLKPEDTAVYYCNTFVSFVGIARSWGQGTQVTVSSESKYGPPCPPCPAPEAAGGPSVFLFPPKPKDTLMISRTPEVTCVVVDVSQEDPEVQFNWYVDGVEVHNAKTKPREEQFNSTYRVVSVLTVLHQDWLNGKEYKCKVSNKGLPSSIEKTISKAKGQPREPQVCTLPPSQEEMTKNQVSLSCAVKGFYPSDIAVEWESNGQPENNYKTTPPVLDSDGSFFLVSRLTVDKSRWQEGNVFSCSVMHEALHNRFTQKSLSLSL light: DIVMTQSPDSLAVSLGERATINCKSSQSLLNSRTRKNYLAWYQQKPGQSPKLLIYWTSTRKSGVPDRFSGSGSGTDFTLTISSLQAEDVAVYYCKQSFILRTFGQGTKVEIK	1.4	0.000419	278000	0.0129 µg/mL and 0.1 nM
301 (TA2), configuration of FIG. 1W (bispecific antibody, IgG4, IgG4, kappa; not shown: kappa light chain constant domain (CL)) heavy: QVQLVQSGGGVVQPGRSLRLSCKASGYTFTRYTMHWVRQAPGKGLEWIGYINPSRGYTNYNQKVKDRFTISRDNSKNTAFLQMDSLRPEDTGVYFCARYYDDHYCLDYWGQGTPVTVSSASTKGPSVFPLAPCSRSTSESTAALGCLVKDYFPEPVTVSWNSGALTSGVHTFPAVLQSSGLYSLSSVVTVPSSSLGTKTYTCNVDHKPSNTKVDKRVESKYGPPCPPCPAPEAAGGPSVFLFPPKPKDTLMISRTPEVTCVVVDVSQEDPEVQFNWYVDGVEVHNAKTKPREEQFNSTYRVVSVLTVLHQDWLNGKEYKCKVSNKGLPSSIEKTISKAKGQPREPQVYTLPPCQEEMTKNQVSLWCLVKGFYPSDIAVEWESNGQPENNYKTTPPVLDSDGSFFLYSRLTVDKSRWQEGNVFSCSVMHEALHNHYTQKSLSLSL EVQLVESGGGFVQAGESLTLSCTSSTLTFTPYRMAWYRQAPGKQRDLVADISSGDGRTTNYADFAKGRFTISRDNIKNTVFLRMTNLKPEDTAVYYCNTFVSFVGIARSWGQGTQVTVSSESKYGPPCPPCPAPEAAGGPSVFLFPPKPKDTLMISRTPEVTCVVVDVSQEDPEVQFNWYVDGVEVHNAKTKPREEQFNSTYRVVSVLTVLHQDWLNGKEYKCKVSNKGLPSSIEKTISKAKGQPREPQVCTLPPSQEEMTKNQVSLSCAVKGFYPSDIAVEWESNGQPENNYKTTPPVLDSDGSFFLVSRLTVDKSRWQEGNVFSCSVMHEALHNRFTQKSLSLSL light: DIQMTQSPSSLSASVGDRVTITCSASSSVSYMNWYQQTPGKAPKRWIYDTSKLASGVPSRFSGSGSGTDYTFTISSLQPEDIATYYCQQWSSNPFTFGQGTKLQIT				0.282 µg/mL and 2.17 nM
304 (TA5), configuration of FIG. 1W (bispecific antibody, IgG4, chains put together from VH/VL, CH1, knob-Fc; IgG4, kappa; not shown: kappa light chain constant domain (CL)) heavy: DVQLVQSGAEVKKPGASVKVSCKASGYTFTRYTMHWVRQAPGQGLEWIGYINPSRGYTNYADSVKGRFTITTDKSTSTAYMELSSLRSEDTATYYCARYYDDHYCLDYWGQGTTVTVSSASTKGPSVFPLAPCSRSTSESTAALGCLVKDYFPEPVTVSWNSGALTSGVHTFPAVLQSSGLYSLSSVVTVPSSSLGTKTYTCNVDHKPSNTKVDKRVESKYGPPCPPCPAPEAAGGPSVFLFPPKPKDTLMISRTPEVTCVVVDVSQEDPEVQFNWYVDGVEVHNAKTKPREEQFNSTYRVVSVLTVLHQDWLNGKEYKCKVSNKGLPSSIEKTISKAKGQPREPQVYTLPPCQEEMTKNQVSLWCLVKGFYPSDIAVEWESNGQPENNYKTTPPVLDSDGSFFLYSRLTVDKSRWQEGNVFSCSVMHEALHNHYTQKSLSLSL EVQLVESGGGFVQAGESLTLSCTSSTLTFTPYRMAWYRQAPGKQRDLVADISSGDGRTTNYADFAKGRFTISRDNIKNTVFLRMTNLKPEDTAVYYCNTFVSFVGIARSWGQGTQVTVSSESKYGPPCPPCPAPEAAGGPSVFLFPPKPKDTLMISRTPEVTCVVVDVSQEDPEVQFNWYVDGVEVHNAKTKPREEQFNSTYRVVSVLTVLHQDWLNGKEYKCKVSNKGLPSSIEKTISKAKGQPREPQVCTLPPSQEEMTKNQVSLSCAVKGFYPSDIAVEWESNGQPENNYKTTPPVLDSDGSFFLVSRLTVDKSRWQEGNVFSCSVMHEALHNRFTQKSLSLSL light: DIVLTQSPATLSLSPGERATLSCRASQSVSYMNWYQQKPGKAPKRWIYDTSKVASGVPARFSGSGSGTDYSLTINSLEAEDAATYYCQQWSSNPLTFGGGTKVEIK				0.101 µg/mL and 0.77 nM

The remaining lines, values ahead:

Kd [1] [nM]	koff [1] [s⁻¹]	kon [1] [M⁻¹ s⁻¹]	EC50 [2]	Binder
3.08	0.000552	180000	8.29 nM and 1.08 µg/mL	Knob+CEA-Fab-Hole (206) (bispecific antibody, human IgG4 S228P, kappa, F234A L235A, VHH linked to the VH of the Fab; human IgG4 knob-into-hole Fc) ESKYGPPCPPCPAPEAAGGPSVFLFPPKPKDTLMISRTPEVTCVVVDVSQEDPEVQFNWYVDGVEVHNAKTKPREEQFNSTYRVVSVLTVLHQDWLNGKEYKCKVSNKGLPSSIEKTISKAKGQPREPQVYTLPPCQEEMTKNQVSLWCLVKGFYPSDIAVEWESNGQPENNYKTTPPVLDSDGSFFLYSRLTVDKSRWQEGNVFSCSVMHEALHNHYTQKSLSLSL heavy: EVQLVESGGGFVQAGESLTLSCTSSTLTFTPYRMAWYRQAPGKQRDLVADISSGDGRTTNYADFAKGRFTISRDNIKNTVFLRMTNLKPEDTAVYYCNTFVSFVGIARSWGQGTQVTVSSGGGGSGGGGSEVKLLESGGGLVQPKGSLKLSCAASGFTFNTYAMNWVRQAPGKGLEWVARIRSKYNNYATYYADSVKDRFTISRDDSQSILYLQMNNLKTEDTAMYYCVRHGNFGNSYVSWFAYWGQGTLVTVSSASTKGPSVFPLAPCSRSTSESTAALGCLVKDYFPEPVTVSWNSGALTSGVHTFPAVLQSSGLYSLSSVVTVPSSSLGTKTYTCNVDHKPSNTKVDKRVESKYGPPCPPCPAPEAAGGPSVFLFPPKPKDTLMISRTPEVTCVVVDVSQEDPEVQFNWYVDGVEVHNAKTKPREEQFNSTYRVVSVLTVLHQDWLNGKEYKCKVSNKGLPSSIEKTISKAKGQPREPQVCTLPPSQEEMTKNQVSLSCAVKGFYPSDIAVEWESNGQPENNYKTTPPVLDSDGSFFLVSRLTVDKSRWQEGNVFSCSVMHEALHNRFTQKSLSLSL light: QAVVTQESALTTSPGETVTLTCRSSTGAVTTSNYANWVQEKPDHLFTGLIGGTNKRAPGVPARFSGSLIGDKAALTITGAQTEDEAIYFCALWYSNLWVFGGGTKVEIKRTVAAPSVFIFPPSDEQLKSGTASVVCLLNNFYPREAKVQWKVDNALQSGNSQESVTEQDSKDSTYSLSSTLTLSKADYEKHKVYACEVTHQGLSSPVTKSFNRGEC
			0.181 µg/mL and 1.39 nM	310 (TA5), configuration of FIG. 1X (bispecific antibody, IgG4, chains put together from parts; IgG4, kappa; also called CEA-CD3 bispecific antibody 310; not shown: kappa light chain constant domain (CL)) heavy: DVQLVQSGAEVKKPGASVKVSCKASGYTFTRYTMHWVRQAPGQGLEWIGYINPSRGYTNYADSVKGRFTITTDKSTSTAYMELSSLRSEDTATYYCARYYDDHYCLDYWGQGTTVTVSSASTKGPSVFPLAPCSRSTSESTAALGCLVKDYFPEPVTVSWNSGALTSGVHTFPAVLQSSGLYSLSSVVTVPSSSLGTKTYTCNVDHKPSNTKVDKRVESKYGPPCPPCPAPEAAGGPSVFLFPPKPKDTLMISRTPEVTCVVVDVSQEDPEVQFNWYVDGVEVHNAKTKPREEQFNSTYRVVSVLTVLHQDWLNGKEYKCKVSNKGLPSSIEKTISKAKGQPREPQVYTLPPCQEEMTKNQVSLWCLVKGFYPSDIAVEWESNGQPENNYKTTPPVLDSDGSFFLYSRLTVDKSRWQEGNVFSCSVMHEALHNHYTQKSLSLSLGGGGSGGGGSEVQLVESGGGFVQAGESLTLSCTSSTLTFTPYRMAWYRQAPGKQRDLVADISSGDGRTTNYADFAKGRFTISRDNIKNTVFLRMTNLKPEDTAVYYCNTFVSFVGIARSWGQGTQVTVSS ESKYGPPCPPCPAPEAAGGPSVFLFPPKPKDTLMISRTPEVTCVVVDVSQEDPEVQFNWYVDGVEVHNAKTKPREEQFNSTYRVVSVLTVLHQDWLNGKEYKCKVSNKGLPSSIEKTISKAKGQPREPQVCTLPPSQEEMTKNQVSLSCAVKGFYPSDIAVEWESNGQPENNYKTTPPVLDSDGSFFLVSRLTVDKSRWQEGNVFSCSVMHEALHNRFTQKSLSLSL light: DIVLTQSPATLSLSPGERATLSCRASQSVSYMNWYQQKPGKAPKRWIYDTSKVASGVPARFSGSGSGTDYSLTINSLEAEDAATYYCQQWSSNPLTFGGGTKVEIK
			2.86 µg/mL and 22 nM	307 (TA2), configuration of FIG. 1X (bispecific antibody, IgG4, chains put together from parts; IgG4, kappa; also called CEA-CD3 bispecific antibody 307; not shown: kappa light chain constant domain (CL)) heavy: QVQLVQSGGGVVQPGRSLRLSCKASGYTFTRYTMHWVRQAPGKGLEWIGYINPSRGYTNYNQKVKDRFTISRDNSKNTAFLQMDSLRPEDTGVYFCARYYDDHYCLDYWGQGTPVTVSSASTKGPSVFPLAPCSRSTSESTAALGCLVKDYFPEPVTVSWNSGALTSGVHTFPAVLQSSGLYSLSSVVTVPSSSLGTKTYTCNVDHKPSNTKVDKRVESKYGPPCPPCPAPEAAGGPSVFLFPPKPKDTLMISRTPEVTCVVVDVSQEDPEVQFNWYVDGVEVHNAKTKPREEQFNSTYRVVSVLTVLHQDWLNGKEYKCKVSNKGLPSSIEKTISKAKGQPREPQVYTLPPCQEEMTKNQVSLWCLVKGFYPSDIAVEWESNGQPENNYKTTPPVLDSDGSFFLYSRLTVDKSRWQEGNVFSCSVMHEALHNHYTQKSLSLSLGGGGSGGGGSEVQLVESGGGFVQAGESLTLSCTSSTLTFTPYRMAWYRQAPGKQRDLVADISSGDGRTTNYADFAKGRFTISRDNIKNTVFLRMTNLKPEDTAVYYCNTFVSFVGIARSWGQGTQVTVSS ESKYGPPCPPCPAPEAAGGPSVFLFPPKPKDTLMISRTPEVTCVVVDVSQEDPEVQFNWYVDGVEVHNAKTKPREEQFNSTYRVVSVLTVLHQDWLNGKEYKCKVSNKGLPSSIEKTISKAKGQPREPQVCTLPPSQEEMTKNQVSLSCAVKGFYPSDIAVEWESNGQPENNYKTTPPVLDSDGSFFLVSRLTVDKSRWQEGNVFSCSVMHEALHNRFTQKSLSLSL light: DIQMTQSPSSLSASVGDRVTITCSASSSVSYMNWYQQTPGKAPKRWIYDTSKLASGVPSRFSGSGSGTDYTFTISSLQPEDIATYYCQQWSSNPFTFGQGTKLQIT
